± gives the standard deviation of the averaged measurements.
test system: ATP; assay: switch fluorescence ratio, 500 uM ATP over buffer (Cy3 cluster intensity, sum of 5 cycles each) (fold (ratio)); higher = stronger signal-on switching upon ATP binding; sequences stand for … in TCGTCGGCAGCGTCAGATGTGTATAAGAGACAGTTTTTTTTTTTTTTTTTTTTTTTTT…TC; details: aptamer strand: ATP DNA aptamer (quencher-CACCTGGGGGAGTATTGCGGAGGAAGG + anchor), 100 nM annealed; ATP concentration: 500 uM
Outline: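 Exposure to 500 uM ATP lasted 15 min at 22 °C before imaging, and a selection-buffer image was taken beforehand, for Cy3-labelled switching-strand clusters on a modified Illumina MiSeq flow-cell annealed to 100 nM quencher-labelled ATP aptamer. Five buffer/ATP cycles were run with NaOH stripping and re-annealing between them. The fluorescence ratio per cluster is summed target-cycle over summed buffer-cycle Cy3 intensity, averaged per switch-domain sequence. Clusters outside 100-1000 RFU were excluded.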

Sequence | switch fluorescence ratio
ACCAGATCAC | 1.04 ± 0.019
ACCAGCCGGG | 1.09 ± 0.062
ACCAGGGCAT | 1.067 ± 0.0076
ACCAGGTCTA | 1.07 ± 0.017
ACCAGGTGGG | 2.75 ± 0.75
ACCAGTAGAC | 1.038 ± 0.0074
ACCAGTCTCG | 1.07 ± 0.08
ACCAGTGAGT | 0.969 ± 0.011
ACCAGTGCTG | 1 ± 0.04
ACCATAATGG | 1.021 ± 0.01
ACCATACTGC | 1.23 ± 0.12
ACCATCGATA | 1.03 ± 0.024
ACCATGCGTC | 0.99 ± 0.031
ACCCAAAATT | 1.05 ± 0.033
ACCCAATTTT | 1.03 ± 0.036
ACCCAGCGCT | 1.04 ± 0.023
ACCCCGGGCA | 1.08 ± 0.018
ACCCCTTGAT | 1.04 ± 0.023
ACCCGAGGTC | 1.09 ± 0.015
ACCCGATTGC | 1.29 ± 0.044
ACCCGCCAGC | 3.96 ± 1.6
ACCCTCAAAA | 1.31 ± 0.031
ACCCTGCGAG | 1.05 ± 0.032
ACCGAGATCA | 1.03 ± 0.014
ACCGAGGAGG | 0.961 ± 0.026

Sequence | switch fluorescence ratio
ACCGATTGTT | 1.017 ± 0.0016
ACCGCGAAGG | 1.025 ± 0.0058
ACCGCGCGAC | 2.49 ± 0.053
ACCGGGATGC | 3.66 ± 0.26
ACCGGGCTGC | 1.06 ± 0.024
ACCGGTTAAC | 1.02 ± 0.035
ACCGGTTATA | 1.03 ± 0.038
ACCGGTTTTC | 0.984 ± 0.023
ACCGTATGAC | 1.05 ± 0.068
ACCGTATGGC | 1.02 ± 0.023
ACCGTCATTT | 1.05 ± 0.046
ACCGTCTCAG | 1.05 ± 0.026
ACCGTTGTTC | 1.04 ± 0.02
ACCGTTTCGT | 0.94 ± 0.029
ACCTAAAATA | 1.07 ± 0.085
ACCTAACAGG | 0.9728 ± 0.0095
ACCTCCCGTT | 1.12 ± 0.064
ACCTCGGACC | 1.09 ± 0.022
ACCTCTTGGG | 0.9405 ± 0.0011
ACCTGGCATC | 1.122 ± 0.0016
ACCTGTTGTT | 0.991 ± 0.016
ACCTTGGCTC | 1.1 ± 0.06
ACCTTGGTTG | 0.9609 ± 0.0054
ACCTTTACGT | 1.17 ± 0.033
ACCTTTAGTG | 1.03 ± 0.019

Sequence | switch fluorescence ratio
ACCTTTTTCA | 1.021 ± 0.0084
ACGAACGTTG | 1.26 ± 0.089
ACGAATGTGC | 1.022 ± 0.0097
ACGAATGTTG | 0.9918 ± 0.0029
ACGAATTCTG | 1.02 ± 0.042
ACGACCTGCA | 1.51 ± 0.075
ACGACTAGGT | 1.102 ± 0.008
ACGACTGTTA | 1.04 ± 0.02
ACGAGGATTG | 1.042 ± 0.0021
ACGAGGGCGT | 1.03 ± 0.017
ACGAGGGGGA | 1.05 ± 0.016
ACGAGGTAAG | 1.079 ± 0.0031
ACGAGGTAGA | 1.02 ± 0.021
ACGATAGTTA | 0.992 ± 0.01
ACGATGGTTG | 0.9729 ± 0.0095
ACGATTGTCT | 0.973 ± 0.037
ACGCAATGAT | 5.18 ± 0.069
ACGCACGATT | 1.37 ± 0.1
ACGCAGAACG | 1.36 ± 0.074
ACGCATTTGG | 1.1159 ± 0.00088
ACGCCGCGTT | 1.42 ± 0.032
ACGCCGTGTG | 0.999 ± 0.022
ACGCGATAAC | 4.27 ± 0.27
ACGCGGGGAG | 1.01 ± 0.034
ACGCGGTTTT | 1.02 ± 0.027

Sequence | switch fluorescence ratio
ACGCTGAGCA | 1.033 ± 0.008
ACGCTGGAAG | 0.9892 ± 0.0067
ACGCTGGGGG | 1.06 ± 0.041
ACGCTTACTA | 1.44 ± 0.054
ACGCTTGGGA | 0.998 ± 0.048
ACGCTTTACC | 1.89 ± 0.11
ACGCTTTATT | 1.08 ± 0.032
ACGGAATTTG | 1.04 ± 0.019
ACGGACGCAA | 3.95 ± 0.66
ACGGAGAAAC | 1.35 ± 0.11
ACGGAGCGGG | 1.35 ± 0.25
ACGGAGGATA | 1.11 ± 0.014
ACGGAGGGGG | 0.96 ± 0.042
ACGGATGGGG | 0.997 ± 0.019
ACGGATGTTG | 1.01 ± 0.059
ACGGCTCAT | 1.01 ± 0.037
ACGGCTCTGG | 1.015 ± 0.0057
ACGGGACAGC | 1.2 ± 0.064
ACGGGACATT | 1.19 ± 0.033
ACGGGATATA | 1.02 ± 0.058
ACGGGCGACG | 1.02 ± 0.025
ACGGGGCGTA | 0.98581 ± 0.00064
ACGGGGGCTG | 0.996 ± 0.037
ACGGGGGGTG | 1.01 ± 0.077
ACGGGGTAAT | 1.22 ± 0.35

Source: the supplement of paper PMC10126150
